Assay: yeast display, Sf9 membrane polyspecificity reagent, FACS + sequencing; frameworks hold sequencing errors
Method in brief: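 A nanobody's polyreactivity label depends on the gate it was sorted from. Yeast display cells were stained with 10% biotinylated, detergent-solubilized Sf9 membrane reagent for 1 hour at 4 °C, enriched on streptavidin microbeads and sorted by FACS. The low and high (top ~1%) gates were set on anti-HA fluorescence for expression and streptavidin fluorescence for reagent binding.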

In the case of “QVQLVESGGGLVQAGGSLRLSCAASGSIFAWYGMGWYRQAPGKERELVAAITSTGSTYYADSVKGRFTISRDNAKNTVYLQMNSLKPEDTAVYDCNAYSVYLWRPGDYWGLGTQVTVSS”, the “polyreactivity (PSR sort gate)” value is reported as “low polyreactivity”.

In the case of “QVQLVESGGGLVQAGGSLRLSCAASGSIFAWYGMGWYRQAPGKERELVAAITSTGSTYYADSVKGRFTISRDNAKNTVYLQMNSLKPEDTAVYYCNDYSVYLWRPGDYWGQGTQVTVSS”, the “polyreactivity (PSR sort gate)” value is reported as “low polyreactivity”.

For “QVQLVESGGGLVQAGGSLRLSCAASGSIFAYAMGWYRQAPGKERELVAGISSSGGRTYYADSVKGRFTISRDNAKNTVYLQMNRLKPEDTAVYYCAAKRWGLYKGYNCGQGTQVTVSS”, the “polyreactivity (PSR sort gate)” value was “high polyreactivity”.

With “QVQLVESGGGLVQAGGSLRLSCAASGSIFAYNAMGWYIQAPGKERELVATITVRGGSTYYADSVKGRFTISRDNAKNTFYLQMNSLKPEDTAVYFCAVRTYRYYRYNYWGQGTQVTVSS” the “polyreactivity (PSR sort gate)” value was “high polyreactivity”.

In the case of “QVQLVESGGGLVQAGGSLRLSCAASGSIFAYNAMGWYRQAPGKERELVAAISVSDGITYYADSVKGRFTISRDNAKNTVYLQMNSLKPEDTAVYYCAARTRGPYRAYDYWGQGTQVTVSS”, the “polyreactivity (PSR sort gate)” value is reported as “low polyreactivity”.

In the case of “QVQLVESGGGLVQAGGSLRLSCAASGSIFAYYAMGGYRQAPGKEREFVAAISKRGGRTYYADSVKGRFTISRDNAKNTVYLQMNSLKPEDTAVYYCAAPWAYPRSGGDYWGQGTQVTVSS”, the “polyreactivity (PSR sort gate)” value is reported as “high polyreactivity”.

For “QVQLVESGGGLVQAGGSLRLSCAASGSIFAYYAMGWYRQAPGKERELVAAISGTGGSTNYADSVKGRFTISRDNAKNTVYLQMNSLKPEDTAVYYCAKDYSFQWRNEFNLAGEYDYWGQGTQVTVSS”, the “polyreactivity (PSR sort gate)” value was “low polyreactivity”.

With “QVQLVESGGGLVQAGGSLRLSCAASGSIFAYYAMGWYRQAPGKERELVAAISYSGDGTYYADSVKGRFTISRDNAKNTVYFQMNSLKPEDTAVYYCAADWDGYFYKSNWDYNYWGQGTQVTVSS” the “polyreactivity (PSR sort gate)” value was “low polyreactivity”.

With “QVQLVESGGGLVQAGGSLRLSCAASGSIFAYYAMGWYRQAPGKERELVAGIRISGGRTYYADSVKGRFTISRDNAKNTVYLQMNSLKPEDTAVYYCNARWRGFRTGAGDYWGQGTQVTVSS” the “polyreactivity (PSR sort gate)” value was “high polyreactivity”.

In the case of “QVQLVESGGGLVQAGGSLRLSCAASGSIFAYYAMGWYRQAPGKERELVAVIRSGGSTYYADSVKGRFTISRDNEKNTVYLQMNSLNPEDTAVYYCAAPSYRPSRGDYWGQGTQVTVSS”, the “polyreactivity (PSR sort gate)” value is reported as “high polyreactivity”.

In the case of “QVQLVESGGGLVQAGGSLRLSCAASGSIFAYYAMGWYRQAPGKERELVAVISRGGSTYYADSVKGRFTISRDNATNTVYLQMNSLKPEDTAVYYCAADDTRGREEYDYWGQGTQVTVSS”, the “polyreactivity (PSR sort gate)” value is reported as “high polyreactivity”.

With “QVQLVESGGGLVQAGGSLRLSCAASGSIFCDNAMGWYRQEPGKERELVAAISIVGSTSYADSVKGRFTISRDNANNTVYLQMNSLKPEDTAVYYCAAENVRSDTGFDYWGQGTQVTVSS” the “polyreactivity (PSR sort gate)” value was “low polyreactivity”.

For “QVQLVESGGGLVQAGGSLRLSCAASGSIFCSYAMGWYRPAPGKERELVAAITQRGGRTYYADSVKGRFTISRENAKNTVYLQMNSLKPEDTAVYYCAAKNRISRPSPYDYWGQGTQVTVSS”, the “polyreactivity (PSR sort gate)” value was “high polyreactivity”.

For “QVQLVESGGGLVQAGGSLRLSCAASGSIFDAYAMGWYRQAPGKERELVAAITTGGGSTYYADSVKGRFTISRDTAKNTVYLQMNSLKPEDTAVYYCARDYGKYKGYYWGQGTQVTVSS”, the “polyreactivity (PSR sort gate)” value was “low polyreactivity”.

With “QVQLVESGGGLVQAGGSLRLSCAASGSIFDAYVMGWYRQAPGKERELVAAISRSGGSTYYADSVKGRFTISRDNAKNTVYLQMNSLKPEDTAVYYCAAEKIRSSPYRYDYWGQGTQVTVSS” the “polyreactivity (PSR sort gate)” value was “low polyreactivity”.

In the case of “QVQLVESGGGLVQAGGSLRLSCAASGSIFDFYAMGWYRQAPGKERELVAAINRGGSTYYADSVKGRFTISRDNAKNTVYLQMNSLKPEDTAVYYCAASYFYWRANRGPRYYWGQGTQVTVSS”, the “polyreactivity (PSR sort gate)” value is reported as “high polyreactivity”.

In the case of “QVQLVESGGGLVQAGGSLRLSCAASGSIFDGNAMGWYRQAPGKERELVAAISGGGRTYYADSVKGRFTISRDNAKNTVYLQMNSLKPEDTAVYYCAAAYTFYVYGSYKVTLDYWGQGTQVTVSS”, the “polyreactivity (PSR sort gate)” value is reported as “low polyreactivity”.

In the case of “QVQLVESGGGLVQAGGSLRLSCAASGSIFDHTNAMGSYRQAPGKERELVAAITSGSSTNYADSVKGRFTISRDNAKKTVDLQMNSLKPEDTAVYYCNADRFHSGIFDYWGQGTQVTVSS”, the “polyreactivity (PSR sort gate)” value is reported as “low polyreactivity”.

With “QVQLVESGGGLVQAGGSLRLSCAASGSIFDINAMGWYRQAPGKERELVAAISTTSGRTYYADSVKGRFTISRDNAKNTVFLQMNSLKPEDTAVYYCNVSKYVSSYRRGLFNYWGQGTQVTVSS” the “polyreactivity (PSR sort gate)” value was “low polyreactivity”.

With “QVQLVESGGGLVQAGGSLRLSCAASGSIFDINAMGWYRQAPGKERELVAVITDSGSTYYADSVKGRFTISRDNAKNTVYLQMNSLKPEDTAVYYCAAESSLLFFLMDYWGQATQVTVSS” the “polyreactivity (PSR sort gate)” value was “low polyreactivity”.

With “QVQLVESGGGLVQAGGSLRLSCAASGSIFDINAMGWYRQAPGKERELVAVITDSGSTYYADSVKGRFTISRDNAKNTVYLQMNSLKPEDTAVYYCAAESSLLFFLMDYWGQGTQVTVSS” the “polyreactivity (PSR sort gate)” value was “low polyreactivity”.

For “QVQLVESGGGLVQAGGSLRLSCAASGSIFDIYAMGWYRQAPGKERELVAAISWNGGDTTYADSVKGRFTISRDNAKNTVYLQMNSLKPEDTAVYYCAADLGYWVADYYWGQGTQVTVSS”, the “polyreactivity (PSR sort gate)” value was “high polyreactivity”.

For “QVQLVESGGGLVQAGGSLRLSCAASGSIFDIYAMGWYRQAPGKETELVAAISWNGGDTTYADSVKGRFTISRDNAKNTVYLQMNSLKPEDTAVYYCAADLGYWVADYYWGQGTQVTVSS”, the “polyreactivity (PSR sort gate)” value was “high polyreactivity”.

For “QVQLVESGGGLVQAGGSLRLSCAASGSIFDLNAMGWYRQAPGKERELVAAISKSGGSTYYADSVKGRFTISRDNAKNTVYLQMNSLKPEDTAVYYCATSGDRLVWGQGTQVTVSW”, the “polyreactivity (PSR sort gate)” value was “low polyreactivity”.

With “QVQLVESGGGLVQAGGSLRLSCAASGSIFDLNAMGWYRQAPGKERELVAAISSGGGTYYADSVKGRFTISRDNAKNTVYLQMNSLKPEDTAVYYCNRVTRWTYNYWGQGTQVTVSS” the “polyreactivity (PSR sort gate)” value was “high polyreactivity”.

For “QVQLVESGGGLVQAGGSLRLSCAASGSIFDLYAMGWYRQAPGKERELVAGISYSGGSTYYADSVKGRFTISRDNAKNTVYLQMNSLKPEDTAVYYCAVDLGYRLGRFDYWGQGTQVTVSS”, the “polyreactivity (PSR sort gate)” value was “low polyreactivity”.

In the case of “QVQLVESGGGLVQAGGSLRLSCAASGSIFDNYAMGWYRPAPGKERELVAVISSGGVSTSYADSVKGRFTISRDNAKNTVYLQMNSLKTEDTAVYYCAADGYYIGPYDYWGQGTQVNVSS”, the “polyreactivity (PSR sort gate)” value is reported as “low polyreactivity”.

In the case of “QVQLVESGGGLVQAGGSLRLSCAASGSIFDPYAMGWYRQAPGKEREFVAALSWSGGSTYYADSVKGRFTISRDNAKNTVYLQMNSLKPEDTAVYYCATDWGDPYGYDYWGQGTQVTVSS”, the “polyreactivity (PSR sort gate)” value is reported as “low polyreactivity”.

With “QVQLVESGGGLVQAGGSLRLSCAASGSIFDPYAMGWYRQAPGKERELVAAISFSGGSTSYADSVKGRFTISRDNAKNTVYLQMNSLTPEATAVYYCAKRARFYSETDLKPYGFDYWGHGTQVTVSS” the “polyreactivity (PSR sort gate)” value was “low polyreactivity”.

In the case of “QVQLVESGGGLVQAGGSLRLSCAASGSIFDPYAMGWYRQAPGKERELVARISRSGGSTNYADSVKGRFTISRDNAKNTVYLQMNSLKPEDTAVYYCNTPSSREMDYWGQGTQVTVSS”, the “polyreactivity (PSR sort gate)” value is reported as “low polyreactivity”.

For “QVQLVESGGGLVQAGGSLRLSCAASGSIFDQNAMGWYRQAPGKERELVAAITFSGVDTYYADSAKGRFTISRDNAKNTVYLQMNSLKPEDTAVYYCNADRGYNLVRRSQAVVEMDYWGQGTQVTVSS”, the “polyreactivity (PSR sort gate)” value was “low polyreactivity”.

For “QVQLVESGGGLVQAGGSLRLSCAASGSIFDRNAMGWYRQAPGIERELVAAITSRGGSTYYADSVKGRFTISRDNAKNTVYLQMNSLKPEDTAVYYCAARYSSRGTYPRRYDYWGQGTQVTVSS”, the “polyreactivity (PSR sort gate)” value was “high polyreactivity”.
